Here are results for 21 sequences from the nanobody polyreactivity screen of Harvey et al. (2022).

The nature of this data set: yeast display, Sf9 membrane polyspecificity reagent, FACS + sequencing; frameworks hold sequencing errors. A digest of the protocol: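 Polyreactivity labels are assigned by the sorting gate from which each nanobody was recovered. The gates were low and high (top ~1%), set on anti-HA fluorescence for expression and streptavidin fluorescence for reagent binding. Before sorting, galactose-induced (36–48 hours) yeast display cells were stained for 1 hour at 4 °C with 10% biotinylated, detergent-solubilized Sf9 membrane reagent.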
As to “QVQLVESGGGLVKAGGSLRLSCAASGSTFAKYAMGWYRQAPGKERELDASIRLSGGSTYYADSVKGRFTISRDNAKNNVYLQMNSLKPEDTAVYYCNKQFATFYYGFDYYYWGQGTQVTVSS”, the “polyreactivity (PSR sort gate)” value is listed as “low polyreactivity”.
The same measure for “QVQLVESGGGLVQAGGSLRLSCAASGRIFFYYAMGLYRQATGKERELVAAITDSVDSTYYADSVKGRFTISRDNAKNTVYFQMKSLKPEDTAVYYCATDVDWAYGYHYEYWGQGPQVTVSS”: “low polyreactivity”; for “QVQLVESGGGLVQAGGSLRLSCAASGFNFYFYTMGWYRQAPGKERELVAGITWSGDSTYYADSVKGRFTISRDNAKNTVYLQMNSLKPEDTAVYYCAAGFDFGTRVSKGYDYWGQGTQVTVSS”: “low polyreactivity”.
The same measure for “QVQLVESGGGLVQAGGSLRLSCAASGRTFPGYAMGWYRQAPGKERELVAGISYRGGSTYYADSVKGRFTISRDNAKNTVYLQMYSLKPEDTAVYYCARDYSRHKGDYWGQGTQVTVSS”: “low polyreactivity”.
The result for “QVQLVESGGGLVQAGGSLRLSCAASGFTFYTKAMGWYRQAPGKERELVAGINSGSSTYYADSVKGRFTISRDNAKNTVYLQMNSLKPEDTAVYYCAARRSRYILRGFGYWGQGTQVTVSS” reads “high polyreactivity”; that for “QVQLVESGGGLVQAGGSLRLSCAASGRNFYYNAMGWYRQAPGKEREFVAGISYGGTTTYYADSVKGRFTISRDNAKNTVYLLMNSLKPEDTAVYYCAAGYTWRQSWYPFDYWGQGTQVTVSS”, “high polyreactivity”.
“QVQLVESGGGLVQAGGILRLSCDASGRIFYTYAMGWYRHGPGQERELVAAISRSGTSTYYADSLKGRFTIARDNEKNHVYLQMNSLKPEDTAVYYCAIYKRLPDYGYWGQGTLVTVSS”: the “polyreactivity (PSR sort gate)” value is given as “high polyreactivity”.
As to “QVQLVESVGGLVQAGGSLRLSCAASGSNFSKKTMGGSRQAHGKERELVAAITTRGSSTYYADSVKGRFTISRDNAKNTVYLQMNSLKPVDTAVYYCNAPYRVTGGRYRWYDYWGQGTQVTVSS”, the “polyreactivity (PSR sort gate)” value is on record as “high polyreactivity”.
The same measure for “QVQLVESGGGLVQAGGSLRLSCAASGSTFLRYDMGWYRQAPGKDRELVAAINWSGGGTSYADSVKGRFTISRDNAKNTVYLQMNSLKPEDTEVYYCAAYFRYSYYWSEYWGQGTQVTVSS”: “high polyreactivity”; for “QVQLVESGGGLVQAGGSLRLSCAASGGTIFAYAMGWYIQAPRERELVPAISWSGDSTYYADSLKGRFTISRDNAKNTVYLQMNSLKPEETAVYYCAADYGFEFYYWGQGTQVTVAS”: “high polyreactivity”; for “QVQLVESGGGLVQAGGSLRLSCAASGSIFDRYAMGWYRQAPGKERELVAAISRSGGSTYYADSVMGRFTISRDNAKNTVYLQMNSLKPEDTAVYYCAAYQHPGLRTSYEYWGQGTQVTVSS”: “low polyreactivity”.
The result for “QVQLVETGGGLVQAGGSLRLSCAPSGRTFGPYAMGWYRQAPGKERELVAAIRVRGASTYYADSVKVRFTISRDNEKNTVYLQMNSLKPEDTEVYYCAATLSYYVGVRYDYWGQGTQVTVSS” reads “high polyreactivity”; that for “QVQLVESGGGLVQAGGSLRLSCAASGSIFRWYAMGWYRKAPGKERELVARITVSGGSTYYADSVKGRFTISRDNAKNTVYLEMNSLKPEDTAVYYCNARAHYTPDGGGDYWGQGTQVTVSS”, “high polyreactivity”; that for “QVQLVESGGGLVQAGGSLRLSCAASGIIFVYYDMGWYRQAPGKERELVASISRGGSTNYADSVKGRFTISRDNAKNTVYLQMNSLKPEDTAVYYCAAGSYSILVHLVRYYYWGQGTQVTVSS”, “high polyreactivity”.
The result for “QVQLVESGGGLVQAGGSLRLSCAASGSIFWINAMGGYRQAPGKEREVVADIDVSGGSTYYADSVKGRFTISRDNAKNTVYLQMNSLKPEDTAVYYCAADAWVRTYHYGYWGQGTQVTVSS” reads “low polyreactivity”; that for “QVQHVESVGGLVQAGGSLRLSCAASGYIFDYYDIGWYRQAPGKERELVAAINWSGGNTYYADSVKGRFTISRDNAKNTVYLQMKSLKPEDTAVYYCNADPTWSLEYGYWGQGTQVTVSS”, “low polyreactivity”; that for “QVQLVESGGGLVQAGGSLRLSCPASGRIFPKNAMGWYRQAPGKERELVAAIDYSDGSTNYADSVKGRFTFSRDTAKNTVYLQMNSLKPDDTAVYYCAIVAVPSYDYWGQGTKVTVSS”, “low polyreactivity”.
For the sequence “QVQLVESGGGLVQAGGSLRLSCAASGSTFVAYAMGWYRQAPGKERELVAAISASGVRTYYADSVKGRFTISRDNAKNTVYLQMNSLKPEDTAVYYCAATVFRKYRYGYWGQGTQVTVSS”, the “polyreactivity (PSR sort gate)” value is listed as “high polyreactivity”.
The result for “QVQLVESGGGLVQSGGSLRLSCGASGLIYGPNSMGWYRQAPAKERELVAAITKSGDSTYYADSVKGRFTISRDNAKNTVYLQMNSLKPEDTAVYYCAAEWYPYPWGYGYWGQGTQVTVSS” reads “low polyreactivity”.
The same measure for “QVQLVESGGGLVQAGGSLRLSCAASGLIFSYYVMGWYRPAPGKERELVAAINRSGGSTYYADSVKGRFTISRDNAKNTVYLQMNSLKPEDTAVYYCAAEKLGTNFEYWGQGTQVTVSS”: “high polyreactivity”; for “QVQLLESVGGLVQAGGSLRLSCDASGYTYCGYAMGSYRQAPGKERELVAAISRSGGSTYYADTVKGRFTISRDHAKNTVYLQMNSLKPEDTAVYYCNARTEDYDGANNYWGHGTQVTVSS”: “low polyreactivity”.
